# Assay results: the supplement of paper PMC10126150
# ± gives the standard deviation of the averaged measurements.
# Tested on: ATP
# Assay: switch fluorescence ratio, 500 uM ATP over buffer (Cy3 cluster intensity, sum of 5 cycles each) (fold (ratio)); higher = stronger signal-on switching upon ATP binding; sequences stand for … in TCGTCGGCAGCGTCAGATGTGTATAAGAGACAGTTTTTTTTTTTTTTTTTTTTTTTTT…TC
# Settings: aptamer strand: ATP DNA aptamer (quencher-CACCTGGGGGAGTATTGCGGAGGAAGG + anchor), 100 nM annealed; ATP concentration: 500 uM
# Method in brief: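 Imaging in selection buffer was followed by imaging after 15 min with 500 uM ATP at 22 °C, for Cy3-labelled switching-strand clusters annealed to 100 nM quencher-labelled ATP aptamer on a modified Illumina MiSeq flow-cell. Five of these buffer/ATP cycles ran, separated by NaOH stripping and re-annealing. The fluorescence ratio per cluster is summed target-cycle over summed buffer-cycle Cy3 intensity, averaged per switch-domain sequence; clusters outside 100-1000 RFU were removed.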
# 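Note: ATP exposure 15 min at 22 °C before imaging.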
row,Sequence,switch fluorescence ratio
1,AAATCTCTGA,1.01 ± 0.025
2,GGGATAAGTT,0.983 ± 0.035
3,GAAATGATTT,1.0406 ± 6.4e-05
4,AGTATGGGGT,0.996 ± 0.018
5,GAGTGCCGGG,1.03 ± 0.016
6,TTGGGGTTAG,0.988 ± 0.017
7,ATCATACTTG,1.03 ± 0.029
8,GATTGGTGAG,1.001 ± 0.0046
9,TAGGATGTAT,0.9864 ± 0.0088
10,GAGTGCGACG,1.08 ± 0.078
11,ACTTAGCGGT,1.07 ± 0.051
12,GATTTCTGCT,0.974 ± 0.021
13,GGACCGGCCG,1.01 ± 0.076
14,AATGTTGGTG,0.998 ± 0.018
15,GGCATTTCTA,1.04 ± 0.018
16,GGCCCTAAGT,0.976 ± 0.026
17,AGGCTGGCTA,1 ± 0.019
18,CTGGAAATGG,1.033 ± 0.0095
19,GATGTGGGCA,1.05 ± 0.026
20,CGGAAAGGGT,1.01 ± 0.027
21,TGGGATTGCG,1.04 ± 0.012
22,GCCTTGACAG,0.989 ± 0.025
23,AGGGCATTAG,1 ± 0.1

row,Sequence,switch fluorescence ratio
1,TTCGGGGCGC,1.03 ± 0.065
2,CGACAATCAT,1.039 ± 0.0036
3,CATGCTTGGT,1.013 ± 0.00025
4,TACTCTTTGT,1.015 ± 0.002
5,GAGCCGCCAG,1.03 ± 0.045
6,GAGTTTCAGA,1.033 ± 0.0033
7,CGGCGAACTC,1.11 ± 0.033
8,TTAGCATAAA,1.04 ± 0.024
9,AAGATCTCTA,1.01 ± 0.015
10,TTTCAGGTCG,1.02 ± 0.088
11,CGTTTCATCT,0.987 ± 0.065
12,GACTTTGGAG,1 ± 0.027
13,GGTTGAGGGA,0.979 ± 0.016
14,GTGCTTAATG,0.975 ± 0.011
15,TGCTAGGGTC,0.994 ± 0.025
16,GACTGTGATC,1.037 ± 0.0042
17,TGTCCTAGAG,1.02 ± 0.024
18,TTTCTCAGTC,1 ± 0.039
19,AAGTAGGAGT,0.994 ± 0.034
20,ATTAGACATT,1.003 ± 0.0016
21,TAGCAGTCAA,1.02 ± 0.02
22,ACTTAGGTTG,1.04 ± 0.017
23,CGTATGCTGG,1.02 ± 0.019

row,Sequence,switch fluorescence ratio
1,GGGTGGGCGC,1.01 ± 0.058
2,TTTGAAGAAA,1.06 ± 0.033
3,CGTGGCAGCA,1.0326 ± 3.9e-05
4,TATTTGGATG,1.03 ± 0.069
5,AAAAAATTAA,1.04 ± 0.026
6,TTTTACGTGA,1.057 ± 0.0092
7,AGTTATAATT,1.005 ± 0.0076
8,TTGGATTCCC,0.977 ± 0.064
9,ACATGCTGTA,0.995 ± 0.024
10,ATAAAATTA,1.011 ± 0.01
11,CGTTAGAGAG,0.99 ± 0.03
12,ATGGGTTTTC,0.981 ± 0.03
13,GCAACGTCAA,1.07 ± 0.076
14,ATAGGGGCGC,1 ± 0.047
15,TTGGTTTTGA,0.988 ± 0.042
16,GGACCCGGTT,1.04 ± 0.029
17,CAAGCCATCA,0.9994 ± 0.0092
18,GAATCGTTTC,0.996 ± 0.053
19,TTTTGGGCAG,0.971 ± 0.013
20,TTCATTTGTT,1.11 ± 0.16
21,GCTGTTAGAG,1.02 ± 0.022
22,GGCCAGTTTG,0.986 ± 0.018
23,AGCGAGGTCG,1 ± 0.031

row,Sequence,switch fluorescence ratio
1,CCTCCAGGTT,3.69 ± 3.2
2,CTGGGTATTG,0.971 ± 0.012
3,CGTGTTGAGG,0.991 ± 0.023
4,TCGTGGACGC,0.995 ± 0.031
5,ACTATATTTA,1.034 ± 0.0063
6,TACGATTTAA,1.01 ± 0.026
7,GAATTTAAAA,0.9747 ± 0.0071
8,TTATATTGGA,0.971 ± 0.017
9,GCTAATTGCA,1.03 ± 0.057
10,GGGTTATGAA,0.994 ± 0.022
11,GGTCGGTTGG,0.97591 ± 0.00041
12,GTACGAGTGC,0.976 ± 0.019
13,CAGTTTAGCT,1.02 ± 0.015
14,AGTAGAATCA,1.01 ± 0.026
15,ATAGGGAGTA,0.979 ± 0.061
16,TCCGGAGGAC,1.86 ± 0.03
17,GGGATAGGGG,0.996 ± 0.024
18,TGGAAAGAAG,1.02 ± 0.064
19,AGGATATATT,0.976 ± 0.0099
20,AGCGTCTGTG,0.962 ± 0.036
21,CTAAACAGGG,1.03 ± 0.011
22,GATAGGTTTC,0.977 ± 0.07
23,TGGTATGCCC,1.04 ± 0.088

row,Sequence,switch fluorescence ratio
1,TATTGAAGAG,1.008 ± 0.0076
2,CGAGACTAGT,1.01 ± 0.063
3,TTGTATGGTT,1.02 ± 0.019
4,TCGGCCGGGG,1.02 ± 0.015
5,TCAGGGACAA,1.01 ± 0.013
6,CTTGGGGGGT,0.97564 ± 0.00052
7,GTTAGCTTGA,0.9966 ± 0.00037
8,TGACGGGTTT,1.06 ± 0.12
9,CCTGGGCGTC,1.037 ± 0.004
10,AGCTGATAGG,0.991 ± 0.032
11,TAAGTTTTAT,0.984 ± 0.021
12,CGATGTCGAA,1.01 ± 0.011
13,GATGATGGGT,1 ± 0.023
14,GGTTCTTTTC,0.996 ± 0.037
15,GGGCGATGCA,1.02 ± 0.028
16,ATGGATTTTT,1.012 ± 0.0015
17,CCGTGGCTGT,1.31 ± 0.068
18,CTTGGGTAAG,0.988 ± 0.033
19,TTTTAGGATT,1.016 ± 0.0018
20,ATATTTGCCA,1.02 ± 0.021
21,TTCCGGCGGA,1.08 ± 0.026
22,AAACTTCGCT,1.27 ± 0.25
23,GTTTCAGGT,0.991 ± 0.027

row,Sequence,switch fluorescence ratio
1,TTTGTATGTT,0.991 ± 0.051
2,GCTGATTGGA,0.979 ± 0.055
3,CCGAGATCGT,1.02 ± 0.033
4,CACCTTAATT,1.037 ± 0.0075
5,TTGCTGATTT,0.992 ± 0.059
6,GGATTGTTTT,0.996 ± 0.023
7,GGACATTGAC,1.08 ± 0.02
8,TGTATAAATT,0.9679 ± 0.0048
9,AGGACGATGG,1.1 ± 0.16
10,CCGAATTCT,1.13 ± 0.029
11,ATCACAGGTT,1.07 ± 0.0082
12,TTTAACTAGA,1.041 ± 0.0061
13,AACCCGGGAG,1.17 ± 0.2
14,GGGAATACAT,1.01 ± 0.028
15,TGGTGGGGTA,0.998 ± 0.022
16,AAATGTTCCG,1.03 ± 0.011
17,TATGCATATT,1.04 ± 0.032
18,ATTGTGCGGG,1.01 ± 0.036
19,CAGGATAAAT,0.979 ± 0.06
20,TGTTCGGCGG,1.02 ± 0.036
21,CACGGCTTGG,0.9744 ± 0.0044
22,TTTGACTTGA,0.984 ± 0.048
23,TGGGCGGCTT,0.97 ± 0.011

row,Sequence,switch fluorescence ratio
1,AGGGAATGTA,0.99 ± 0.016
2,GCCGTGGCGG,0.9753 ± 0.0041
3,TCTGGGGTGG,1.16 ± 0.21
4,AAGGATGCGA,1.039 ± 0.0079
5,CGTTTCAGGT,0.994 ± 0.036
6,TAAGAGGGGG,0.996 ± 0.052
7,CAACCGTGAG,1.02 ± 0.017
8,TTGGGGTAG,1.02 ± 0.033
9,GCGGCTATGG,1.01 ± 0.019
10,GTCAATAAGG,0.99 ± 0.016
11,ACAACGCGT,0.982 ± 0.013
12,AGGTTGTTAA,1.0085 ± 0.0005
13,GCTCTATCAC,1.04 ± 0.035
14,TTCGGTAAGG,1.02 ± 0.013
15,CCGTCATCTT,1.024 ± 0.0072
16,TCATCAATAT,1.09 ± 0.067
17,GTTGTGGATA,0.97 ± 0.029
18,CAAATGCCCG,0.934 ± 0.055
19,GAACACAAAA,1.05 ± 0.032
